Assay [1] deals with FimA domain of the self-complemented construct FimA-DS_(FimA), oxidized (FimAS-S), in the polyprotein (I91)2-FimA-(I91)2 (E. coli) (UniProt P04128). Nature of the assay: single-molecule force spectroscopy (AFM, force-extension).
Assay [2] has as its target FimF domain, β-strand-complemented and oxidized, in the array polyprotein (I91)2-FimF-FimG-FimH-(I91)2 (E. coli) (UniProt P08189). Nature of the assay: single-molecule force spectroscopy (AFM, force-ramp).
Assay [3] has as its target FimH (lectin and pilin subdomains), β-strand-complemented and oxidized, in the array polyprotein (I9 (E. coli) (UniProt P08191)). The description is as above.
Assay [4] addresses FimF domain of the self-complemented construct FimF-DS_(FimA), oxidized (FimFS-S), in the polyprotein (I91)2-FimF-(I91)2 (E. coli) (UniProt P08189). Nature of the assay: single-molecule force spectroscopy (AFM, force-extension).
The target of assay [5] is FimH (lectin subdomain FimHL and pilin subdomain FimHP) of the self-complemented construct FimH-DS_( (E. coli) (UniProt P08191)). The assay is described as above.
The target in assay [6] is FimG domain of the self-complemented construct FimG-DS_(FimF), reduced (FimG_(SH-SH)), in the polyprotein (I91)2-FimG-(I91)2 (E. coli).
Assay [7] concerns the target FimG domain of the self-complemented construct FimG-DS_(FimF), oxidized (FimGS-S), in the polyprotein (I91)2-FimG-(I91)2 (E. coli). As to the kind of experiment: single-molecule force spectroscopy (AFM, force-extension).
Assay [8] deals with FimG domain, β-strand-complemented and oxidized, in the array polyprotein (I91)2-FimF-FimG-FimH-(I91)2 (E. coli). Nature of the assay: single-molecule force spectroscopy (AFM, force-ramp).
Sequence of FimG domain, β-strand-complemented and oxidized, in the array polyprotein (I91)2-FimF-FimG-FimH-(I91)2 (E. coli) (P08190 24-167): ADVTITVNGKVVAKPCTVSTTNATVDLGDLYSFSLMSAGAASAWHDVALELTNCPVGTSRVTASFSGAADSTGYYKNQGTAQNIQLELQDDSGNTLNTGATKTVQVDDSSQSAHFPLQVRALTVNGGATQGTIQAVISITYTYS

Here are results for eight molecules from paper PMC6048123.

Sequence of FimG domain of the self-complemented construct FimG-DS_(FimF), oxidized (FimGS-S), in the polyprotein (I91)2-FimG-(I91)2 (E. coli) (P08190 24-167): as above
Sequence of UniProt P04128 (P04128 24-182): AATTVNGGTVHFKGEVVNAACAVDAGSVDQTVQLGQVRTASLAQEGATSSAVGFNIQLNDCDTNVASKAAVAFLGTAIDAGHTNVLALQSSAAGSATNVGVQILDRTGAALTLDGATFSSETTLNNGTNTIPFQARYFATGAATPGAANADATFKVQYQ

Take “donor β-strand of FimA (DS_(FimA)) linked by DNKQ to the C-terminus of FimA in (I91)2-FimA-(I91)2 (from UniProt P04128) (peptide)”: in assay [1], the unfolding force (rupture of the β-strand interaction) worked out at 527 pN. “donor β-strand of FimA complementing FimF in the array polyprotein (I91)2-FimF-FimG-FimH-(I91)2 (peptide)” came in with an unfolding force in force-ramp (rupture of the β-strand interaction) in assay [2] of 281 pN. The molecule “donor β-strand of FimG complementing FimH in the array polyprotein (I91)2-FimF-FimG-FimH-(I91)2 (from UniProt P08190) (peptide)” showed an unfolding force of FimHP in force-ramp (rupture of the β-strand interaction) in assay [3] of 238 pN. The molecule “donor β-strand of FimA (DS_(FimA)) linked by DNKQ to the C-terminus of FimF in (I91)2-FimF-(I91)2 (peptide)” registered an unfolding force (rupture of the β-strand interaction) in assay [4] of 418 pN. In turn, “donor β-strand of FimG (DS_(FimG)) linked by DNKQ to the C-terminus of FimH in (I91)2-FimH-(I91)2 (from UniProt P08190) (peptide)” showed a rupture force of FimHP (rupture of the β-strand interaction) in assay [5] of 362 pN.

B1: DsbA oxidoreductase (enzyme)
chain: AQYEDGKQYTTLEKPVAGAPQVLEFFSFFCPHCYQFEEVLHISDNVKKKLPEGVKMTKYHVNFMGGDLGKDLTQAWAVAMALGVEDKVTVPLFEGVQKTQTIRSASDIRDVFINAGIKGEEYDAAWNSFVVKSLVAQQEKAAADVQLRGVPAMFVNGKYQLNPQGMDTSNMDVFVQQYADTVKYLSEKK
In assay [6], B1 gave a refolding probability of FimG in force-clamp AFM after 45 s at 0 pN, with DsbA (100 μM) against reduced FimG alone (around 20%) of 70%.

B2: donor β-strand of FimF (DS_(FimF)) linked by DNKQ to the C-terminus of FimG in (I91)2-FimG-(I91)2 (peptide)
chain: DNKQADSTITIRGYVRDNGCSVAAESTNFTVDLMENAAKQFNNIGATTPVVPFRILLSPCGNAVSAVKVGFTGVADSHNANLLALENTVSAASGLGIQLLNEQQNQIPLNAPSSALSWTTLTPGKPNTLNFYARLMATQVPVTAGHINATATFTLEYQ
As to B2, the unfolding force (rupture of the β-strand interaction) in assay [7] came out at 431 pN.

B3: donor β-strand of FimF complementing FimG in the array polyprotein (I91)2-FimF-FimG-FimH-(I91)2 (peptide)
chain: DNKQADSTITIRGYVRDNGCSVAAESTNFTVDLMENAAKQFNNIGATTPVVPFRILLSPCGNAVSAVKVGFTGVADSHNANLLALENTVSAASGLGIQLLNEQQNQIPLNAPSSALSWTTLTPGKPNTLNFYARLMATQVPVTAGHINATATFTLEYQ
As for B3, the unfolding force in force-ramp (rupture of the β-strand interaction) in assay [8] worked out at 261 pN.
